Results as given in the supplement of paper PMC12042874.
± gives the uncertainty stated by the source.

Assay: amyloid nucleation score (Sup35N fusion, yeast selection) (log enrichment); library NNK3; higher = more nucleation; inactive = no reads after selection
How it was run: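 Random libraries were run with three technical output replicates. In each, psi-negative yeast expressing Sup35N fused to peptides of 20 random codons were induced 24 hours with 100 μM copper sulfate and grown 7 days at 30°C on medium lacking adenine and uracil, and input and output plasmid inserts were Illumina-sequenced. The nucleation score is the DiMSum log enrichment of output over input reads, centred on the mode score of non-aggregating sequences, and sequences under 100 input reads were excluded.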

Substance: GSDVMSGG
- amyloid nucleation score: inactive

Substance: GSFMDHKTR
- amyloid nucleation score: -0.382 ± 1.1

Substance: GSFNFCSNAARFQ
- amyloid nucleation score: inactive

Substance: GSFSCWYCEVVNVV
- amyloid nucleation score: inactive

Substance: GSGGYWFMINVPENKIWVYL
- amyloid nucleation score: 1.72 ± 0.11

Substance: GSGRNLSVLVYRLWVDGPTG
- amyloid nucleation score: inactive

Substance: GSICFNPTVWLVSRYRCS
- amyloid nucleation score: 1.19 ± 0.12

Substance: GSIDFSSSCECIGDWHHRGY
- amyloid nucleation score: inactive

Substance: GSKYMQRHLNTI
- amyloid nucleation score: inactive

Substance: GSLCFGLDSSPSTKIYLYDS
- amyloid nucleation score: inactive

Substance: GSLIMSLAR
- amyloid nucleation score: inactive

Substance: GSLMRVLLFEYLMDTCLWIV
- amyloid nucleation score: inactive

Substance: GSSDNGFFCSLNMN
- amyloid nucleation score: inactive

Substance: GSSTYLTDLPTSPPSVFSSL
- amyloid nucleation score: inactive

Substance: GSVSYLNMTVFFSTVLFIYT
- amyloid nucleation score: inactive

Substance: GSVTGAFERYVKKEA
- amyloid nucleation score: inactive

Substance: GSWLNSYVELTCVFFGSFYM
- amyloid nucleation score: inactive

Substance: GSYSNAHTPQF
- amyloid nucleation score: 0.695 ± 0.2

Substance: GTGEGNDLCARQNPLHQRII
- amyloid nucleation score: inactive

Substance: GTLVWNCDGCLDLKGRWVGG
- amyloid nucleation score: inactive

Substance: GTQCWLILCADNLNVLGIGL
- amyloid nucleation score: 2.58 ± 0.065

Substance: GTVLNSLPQQVGCLRLGSQG
- amyloid nucleation score: inactive

Substance: GTVSSYLRTHSKVFSRRFRD
- amyloid nucleation score: inactive

Substance: GTYPSKIKGFTLKGNLR
- amyloid nucleation score: inactive

Substance: GVAELMGVWDVKLVVPLEES
- amyloid nucleation score: inactive

Substance: GVAIAYHEFVDCSFFNYNIV
- amyloid nucleation score: 2.38 ± 0.054

Substance: GVAPYFQCVLIEEERVEGQG
- amyloid nucleation score: inactive

Substance: GVHHDCDYCRYLDDDVKLWW
- amyloid nucleation score: inactive

Substance: GVITISREDQYLAVGVIQWI
- amyloid nucleation score: inactive

Substance: GVKLVPAAIVGYASLQGL
- amyloid nucleation score: -0.375 ± 0.83

Substance: GVNCLSLGSKIICGSTGWFL
- amyloid nucleation score: 2.47 ± 0.087

Substance: GVNDRGNKRYAPYKTWLRLE
- amyloid nucleation score: inactive

Substance: GVNWFSIQFNIWVLSRDADL
- amyloid nucleation score: 3.36 ± 0.06

Substance: GVRHLYVPMFHFVIMGRWHH
- amyloid nucleation score: inactive

Substance: GVSDVVFWSIGYHGRRISQS
- amyloid nucleation score: inactive

Substance: GVVSCHSFSRRRKALRGYSS
- amyloid nucleation score: inactive

Substance: GVVSSSPMCVNSDREVVEKT
- amyloid nucleation score: inactive

Substance: GVWRLATHGYSQ
- amyloid nucleation score: inactive

Substance: GWAMTWNDVYLSYSIYSHSK
- amyloid nucleation score: 0.514 ± 0.4

Substance: GWKLSSVGNKRDCSSMHVDR
- amyloid nucleation score: 0.101 ± 0.19

Substance: GWLKNNYSTYDTEKKFTATF
- amyloid nucleation score: inactive

Substance: GWLYYQLNLDNTSVRQHWSV
- amyloid nucleation score: 0.587 ± 0.24

Substance: GWRAIWGNWNLQYRTS
- amyloid nucleation score: inactive

Substance: GYAISRFVFDTFRIFAVL
- amyloid nucleation score: inactive

Substance: GYCGQVCWFNAKSWMKRMTF
- amyloid nucleation score: inactive

Substance: GYFARLR
- amyloid nucleation score: inactive

Substance: GYKDIDLTSERGK
- amyloid nucleation score: inactive

Substance: GYQLLNHLHAYTAGTNNLRL
- amyloid nucleation score: inactive

Substance: GYVSALMMIFYYHLWKKGPC
- amyloid nucleation score: inactive

Substance: GYYLLTVCGDWCSVSVHSGF
- amyloid nucleation score: 2.13 ± 0.078

Substance: HAAYGKCLQWFTRLVCYPVA
- amyloid nucleation score: inactive

Substance: HAMCHVVGTRISGYLCAYGT
- amyloid nucleation score: inactive

Substance: HASSWFYWRIFASGLNSDR
- amyloid nucleation score: inactive

Substance: HATGSMNVSVSAGVRQQILR
- amyloid nucleation score: inactive

Substance: HAVYL
- amyloid nucleation score: inactive

Substance: HAWTQPNHI
- amyloid nucleation score: inactive

Substance: HAYSWVLFAVMSLSRLPTWN
- amyloid nucleation score: inactive

Substance: HCEFRSQSDTNVVNLCGQGW
- amyloid nucleation score: inactive

Substance: HCGRTEKDGQLCCENLSGFS
- amyloid nucleation score: inactive

Substance: HCHCIVEYQFFSVHLIRTYE
- amyloid nucleation score: inactive

Substance: HDSQMWYLSIIESYLVQYLM
- amyloid nucleation score: inactive

Substance: HEIPETQFCSIWFDSVCWCL
- amyloid nucleation score: inactive

Substance: HFHSVIELVYG
- amyloid nucleation score: inactive

Substance: HFILFSSYPFYF
- amyloid nucleation score: inactive

Substance: HFNCRYNAGCDGVLVFDVLL
- amyloid nucleation score: inactive

Substance: HFSMHITMLEFLTFNSARRV
- amyloid nucleation score: 2.3 ± 0.075

Substance: HFSSYAFLRTWTLYRHLTFM
- amyloid nucleation score: inactive

Substance: HFYYPLCWVCSVLLSHLVPD
- amyloid nucleation score: inactive

Substance: HGFMI
- amyloid nucleation score: inactive

Substance: HGSLMATGICWLGIFVSEVA
- amyloid nucleation score: inactive

Substance: HHNTYCYVLFELFTV
- amyloid nucleation score: 0.505 ± 0.49

Substance: HICLA
- amyloid nucleation score: inactive

Substance: HIILFSIKSSKD
- amyloid nucleation score: 1.37 ± 0.12

Substance: HIKVVRPRSRCDLLGSPISQ
- amyloid nucleation score: inactive

Substance: HILFLYRDLVILVLCSSHPC
- amyloid nucleation score: inactive

Substance: HILSCSQVFG
- amyloid nucleation score: 0.025 ± 0.6

Substance: HISRYEITVGCLIFRLLTRE
- amyloid nucleation score: 2.46 ± 0.054

Substance: HIVIISYFRLLWSCIAPHGA
- amyloid nucleation score: inactive

Substance: HKNVCRIQRR
- amyloid nucleation score: inactive

Substance: HKVQESAY
- amyloid nucleation score: inactive

Substance: HKWLV
- amyloid nucleation score: inactive

Substance: HLIMNSDLGAATNIFMNPVA
- amyloid nucleation score: inactive

Substance: HLLEVFKDSCRTRGRMLLWG
- amyloid nucleation score: inactive

Substance: HLLYYVCRHQQFLWMDVQVE
- amyloid nucleation score: inactive

Substance: HLPWFRVGATDMLSYTKSLG
- amyloid nucleation score: inactive

Substance: HLRKVCGGFM
- amyloid nucleation score: inactive

Substance: HLTVVSSKYITPSGTLMELH
- amyloid nucleation score: 0.648 ± 0.27

Substance: HMEYLKQLFFRTVLFTDQSV
- amyloid nucleation score: inactive

Substance: HMFMRNLEMRVGHSFHRLRD
- amyloid nucleation score: inactive

Substance: HMFRVVPSLIRI
- amyloid nucleation score: inactive

Substance: HMIRAVFLSCMSASILVTIK
- amyloid nucleation score: -0.366 ± 0.53

Substance: HMLYLNLFGIIGIIFCDWNM
- amyloid nucleation score: inactive

Substance: HMNGEDESDNGYIHFLRRER
- amyloid nucleation score: inactive

Substance: HNCPFFSTDMKCSKNIHIFG
- amyloid nucleation score: 1.78 ± 0.077

Substance: HNLHSYEHRVRTSQAV
- amyloid nucleation score: inactive

Substance: HNPLVRFAQHLLITEDQCMN
- amyloid nucleation score: inactive

Substance: HNQKSCVYMSEGSWRSL
- amyloid nucleation score: inactive

Substance: HNSYRED
- amyloid nucleation score: inactive

Substance: HNVFST
- amyloid nucleation score: inactive

Substance: HPVLRIRLLREKMMRFS
- amyloid nucleation score: inactive

Substance: HQVNVLWQVYILAFSLTSRH
- amyloid nucleation score: inactive

Substance: HQWYG
- amyloid nucleation score: inactive

Substance: HRLTCELFTWMPAEVCVWAD
- amyloid nucleation score: inactive

Substance: HRRSMQLWG
- amyloid nucleation score: inactive

Substance: HRSIRLYSETDWFRGLGSAG
- amyloid nucleation score: inactive

Substance: HRYYCRLVFVEQTRDNIQPW
- amyloid nucleation score: inactive

Substance: HSCMCKSLNASLMVDVRLPR
- amyloid nucleation score: inactive

Substance: HSDFY
- amyloid nucleation score: inactive

Substance: HSGETIYKVWMMGSRTEIAW
- amyloid nucleation score: inactive

Substance: HSINV
- amyloid nucleation score: inactive

Substance: HSLHMGRKAMQYEYTQPAGI
- amyloid nucleation score: inactive

Substance: HSLHMKVCCWGSCEIFSMVR
- amyloid nucleation score: inactive

Substance: HSLTGSHSFVGF
- amyloid nucleation score: inactive

Substance: HSPKPKGWFDGTNSRDGKLY
- amyloid nucleation score: inactive

Substance: HSRTGLGLHKLRMAVGFCIN
- amyloid nucleation score: inactive

Substance: HSSIVWKRYSIYFVKNGGTF
- amyloid nucleation score: inactive

Substance: HSYTVWLVNMS
- amyloid nucleation score: 2.35 ± 0.077

Substance: HTGLVILSVISPVTCPYWRK
- amyloid nucleation score: 0.329 ± 0.3

Substance: HVFLLHVMAFYFDLSCFG
- amyloid nucleation score: inactive

Substance: HVFPVIAPYRLMLNLKWFVY
- amyloid nucleation score: inactive

Substance: HVNSNPHVLASEVK
- amyloid nucleation score: inactive

Substance: HWESGGKIWNKEYLAGLLPR
- amyloid nucleation score: inactive

Substance: HWYVIKLSSNGCTFAVSLRV
- amyloid nucleation score: inactive

Substance: HYADRTAWPSACASLYSHAL
- amyloid nucleation score: inactive

Substance: HYCRNTGC
- amyloid nucleation score: inactive

Substance: HYDMNFIARVPLSQSL
- amyloid nucleation score: inactive

Substance: HYFSYIINTAMMRKAYILSG
- amyloid nucleation score: 0.543 ± 0.14

Substance: HYHSWFPTYSYSYYV
- amyloid nucleation score: 2.71 ± 0.08

Substance: HYILLG
- amyloid nucleation score: inactive

Substance: HYLAIYGVGCCNFYSYTAVC
- amyloid nucleation score: 1.28 ± 0.085

Substance: HYWQYMFYSLHFVYRS
- amyloid nucleation score: inactive

Substance: IAAQSRRVGRCDIASLQLLE
- amyloid nucleation score: inactive

Substance: IAEDIRARPSVWDLMRSSAI
- amyloid nucleation score: inactive

Substance: IALGRFTCNGIVVVSF
- amyloid nucleation score: inactive

Substance: IALGWFVIRFDEVVKLFKMF
- amyloid nucleation score: inactive

Substance: IAMWDAMCFYWKIMSGSIMV
- amyloid nucleation score: inactive

Substance: IAPVFWITLYHNFTSRIDRF
- amyloid nucleation score: 1.44 ± 0.14

Substance: IARKQPLLSMATTSSQVFRA
- amyloid nucleation score: inactive

Substance: IATDRSSKVLSFHT
- amyloid nucleation score: inactive

Substance: IATIVCYRLDGYHVLSYAHT
- amyloid nucleation score: inactive

Substance: IAYDWCQVSVTNFMSRSLMH
- amyloid nucleation score: -0.04 ± 0.75

Substance: ICGMWGFDAMRITSWNVPNG
- amyloid nucleation score: 0.075 ± 0.29

Substance: ICQQCWTVT
- amyloid nucleation score: inactive

Substance: ICRLGLLFIMTLRYYNVFVR
- amyloid nucleation score: inactive

Substance: ICRLVLSNNF
- amyloid nucleation score: inactive

Substance: ICTKSALYQTMLS
- amyloid nucleation score: inactive

Substance: ICVLCSGIMKMCCAMGDLSV
- amyloid nucleation score: 1.36 ± 0.064

Substance: ICYRRPTSSMP
- amyloid nucleation score: inactive

Substance: IDIVNL
- amyloid nucleation score: inactive

Substance: IDKFVRFCIFSWCLMNGDVG
- amyloid nucleation score: inactive

Substance: IDLVVSQVWQSTGAVVALWH
- amyloid nucleation score: -0.301 ± 0.83

Substance: IDQRWYCALQCHCREEINCR
- amyloid nucleation score: inactive

Substance: IDRGNSNRPCPDFTDCFYGR
- amyloid nucleation score: inactive

Substance: IDSDMDKNS
- amyloid nucleation score: inactive

Substance: IDSNE
- amyloid nucleation score: inactive

Substance: IDVRATNPVRAVETD
- amyloid nucleation score: inactive

Substance: IEDEFEAMSHCLECRNFRKL
- amyloid nucleation score: inactive

Substance: IEFGYLGT
- amyloid nucleation score: inactive
